# Patent US20240228595A1 (YALE UNIVERSITY, published 2024)
# Read-outs that look alike come from different tables or passages of the source.
# Legend:
# [1] = molecular target: SARS-COV-2 Omicron (B.1.1.529) full length spike on HIV-1 based pseudovirus (Example 2) (SARS-CoV-2 Omicron, UniProt P0DTC2 14-1273); assay: cell-based or functional assay
# [2] = molecular target: T1, SARS-COV-2 Omicron RBD recombinant protein (Sino Biological 40592-V08H121) (SARS-CoV-2 Omicron BA.1, UniProt P0DTC2 319-541)
# [3] = molecular target: T1, SARS-COV-2 Omicron RBD recombinant …; remark: listed apart in the source
# [4] = molecular target: T1, SARS-COV-2 Omicron RBD recombinant …; remark: listed apart in the source
# [5] = molecular target: T1, SARS-COV-2 Omicron RBD recombinant …; remark: listed apart in the source
# [6] = molecular target: T1, SARS-COV-2 Omicron RBD recombinant …; remark: listed apart in the source
# [7] = molecular target: T1, SARS-COV-2 Omicron RBD recombinant …; assay: BLI (Octet); by the text the format with mAb immobilised and soluble Omicron RBD
# [8] = molecular target: T1, SARS-COV-2 Omicron RBD recombinant …; assay: ELISA, SARS-CoV-2-Omicron BA.1 RBD coated, antibody titrated
# [9] = molecular target: T1, SARS-COV-2 Omicron RBD recombinant …; remark: listed apart in the source
# [10] = molecular target: SARS-COV-2 Omicron BA.1 spike on HIV-1 based pseudovirus (Example 3) (SARS-CoV-2 Omicron BA.1, UniProt P0DTC2 14-1273); assay: cell-based or functional assay
# [11] = molecular target: SARS-COV-2 Omicron BA.1.1 spike on HIV-1 based pseudovirus (SARS-CoV-2 Omicron BA.1.1, UniProt P0DTC2 14-1273); assay: cell-based or functional assay
# [12] = molecular target: SARS-COV-2 Omicron BA.2 spike on HIV-1 based pseudovirus (SARS-CoV-2 Omicron BA.2, UniProt P0DTC2 14-1273); assay: cell-based or functional assay
binder,measurement,setting,value
"Clone 2 (antibody, V domains shown) VH: EVQLQQSGPELVKPGASVKISCKASGYSFTGYSMNWMKQSPEKSLEWIGEINPSTGGTTDNQKFKAKATLTVDKSSSTAYMQLKSLTSEDSAVYYCARSRGDYWGQGTSVTVSS VL: DIVLTQSPASLAVSLGQRATISCRASESVEYYGTSLMQWYQQKPGQPPKVLIYAASNVESGVPARFSGSGSGTDFSLNIHPVEEDDIAMYFCQQSRKVPWTFGGGTKLEIKR","pseudovirus neutralization, IC50",[1],0.396 µg/mL
"MB.08 (antibody, V domains shown) VH: QVQLQESGPGLVKPSETLSLTCTVSGGSISSYYWSWIRQPPGKGLEWIGYIYYSGSTNYNPSLKSRVTISVDTSKNQFSLKLSSVTAADTAVYYCARGLTGGDAFDIWGQGTMVTVSS VL: not shown",koff,[2],0.00536 s⁻¹
same,kon,[2],418000 M⁻¹ s⁻¹
same,koff,[3],0.00536 s⁻¹
same,kon,[3],418000 M⁻¹ s⁻¹
same,Kd,[4],< 0.001 nM
same,EC50,[5],0.0122 µg/mL
same,koff,[6],< 1e-07 s⁻¹
same,kon,[6],172000 M⁻¹ s⁻¹
same,Kd,[7],7.16 nM
same,EC50,[8],0.0014 µg/mL
same,EC50 (read off the curve),[9],~0.2 µg/mL
"CoV2-0213 (bispecific antibody, human IgG1, kappa) heavy 1: not shown light 1: DIQMTQSPSSLSASVGDRVTITCRASESVEYYGTSLMQWYQQKPGKAPKLLIYAASNVESGVPARFSGSGSGTDFTLTISSLQPEDFATYYCQQSRKVPWTFGQGTKVEIKRSSASTKGPSVFPLAPSSKSTSGGTAALGCLVKDYFPEPVTVSWNSGALTSGVHTFPAVLQSSGLYSLSSVVTVPSSSLGTQTYICNVNHKPSNTKVDKKVEPKSC heavy 2: not shown light 2: not shown","pseudovirus neutralization, IC50",[10],0.044 µg/mL
same,"pseudovirus neutralization, IC50",[11],0.062 µg/mL
same,"pseudovirus neutralization, IC50",[12],0.078 µg/mL
same,"pseudovirus neutralization, fold more effective than S309/Sotrovimab",[12],~78 fold
